# T1: recombinant human S100A9 protein, wild type (human, UniProt P06702 2-114)
# T1 construct: also called recS100A9; S100A9 wt
# T1 sequence: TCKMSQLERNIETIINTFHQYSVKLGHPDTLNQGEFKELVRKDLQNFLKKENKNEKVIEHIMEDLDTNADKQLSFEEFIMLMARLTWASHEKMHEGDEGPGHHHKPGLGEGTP
# B1: recombinant human S100A8 protein (other)
# chain: LTELEKALNSIIDVYHKYSLIKGNFHAVYRDDLKKLLETECPQYIRKKGADVWFKELDINTDGAVNFQEFLILVIKMGVAAHKKSHEESHKE
# notes: also called recS100A8; MRP8
# What was measured:
# [1] = molecular target: T1, recombinant human S100A9 protein, wild …; experiment: MALDI-MS, native solvent conditions, no calcium
# [2] = molecular target: B1; experiment: glycerol density gradient centrifugation, 1 mM EGTA
# Procedure: (§1) FIG. 5: Density gradient centrifugation. wt and mutant recS100A8/S100A9 complexes were loaded on a glycerol gradient in the presence of either 1 mM EGTA or 100 μM Ca²⁺. After centrifugation, successive fractions of the gradients were analyzed by SDS-PAGE. […] Addition of calcium induced a marked shift for recS100A8/S100A9 wt to higher glycerol densities, whereas for the mutant complexes recS100A8/S100A9(N69A) and recS100A8/S100A9(E78A) no shift was observed.
# [3] = molecular target: B1; experiment: ESI-MS, native solvent conditions
# [4] = molecular target: the molecule itself; experiment: glycerol density gradient centrifugation, 100 uM Ca2+
# Procedure: as §1
# [5] = molecular target: the molecule itself; experiment: MALDI-MS, native solvent conditions, with calcium
# From the text: FIG. 2: MALDI mass spectra in the absence and presence of calcium under native solvent conditions. (a) MALDI mass spectra of recS100A8/S100A9 wt complexes in the absence (left) and presence (right) of calcium using 2,6-dihydroxy-acetophenone as matrix. The mass spectra between m/z 20,000 and 100,000 together with an inset between m/z 46,000 and 50,000 are shown. T⁺, singly charged; T²⁺, doubly charged; T³⁺, triply charged tetramer. (b) MALDI mass spectra of recS100A8/S100A9(N69A) mutant complexes in the absence (left) and presence (right) of calcium.
# The oligomerization properties of the recS100A8/S100A9 mutant complexes can be determined by MALDI-MS. As shown exemplarily for the N69A mutant in FIG. 2(b), all mutant S100A9 proteins display signals for singly charged heterodimers in the absence of calcium. In contrast to the results obtained with the recS100A8/S100A9 wt proteins no heterotetramers can be observed for the mutant complexes in the presence of calcium (FIG. 2). The base peaks under these conditions exclusively represent S100A8/S100A9(N69A), S100A8/S100A9(E78A) and S100A8/S100A9(N69A+E78A) heterodimers. All MALDI-MS experiments presented here were also confirmed by ESI-MS measurements (see FIG. 3).
binder,measurement,setting,value
B1,binding result,[1],binds
"recombinant human S100A9(E78A) (other, also called E78A mutant) TCKMSQLERNIETIINTFHQYSVKLGHPDTLNQGEFKELVRKDLQNFLKKENKNEKVIEHIMEDLDTNADKQLSFEAFIMLMARLTWASHEKMHEGDEGPGHHHKPGLGEGTP",binding result,[2],binds
"recombinant human S100A9(N69A) (other, also called N69A mutant) TCKMSQLERNIETIINTFHQYSVKLGHPDTLNQGEFKELVRKDLQNFLKKENKNEKVIEHIMEDLDTAADKQLSFEEFIMLMARLTWASHEKMHEGDEGPGHHHKPGLGEGTP",binding result,[2],binds
"recombinant human S100A9(N69A+E78A) (other, also called double mutant) TCKMSQLERNIETIINTFHQYSVKLGHPDTLNQGEFKELVRKDLQNFLKKENKNEKVIEHIMEDLDTAADKQLSFEAFIMLMARLTWASHEKMHEGDEGPGHHHKPGLGEGTP",binding result,[3],binds
"recS100A8/S100A9 wt heterodimer (other, Heterodimer of one S100A8 and one S100A9 chain; Two such heterodimers associate to the (S100A8/S100A9)2 tetramer in the presence of calcium; also called recS100A8/S100A9 wild-type complex; wt S100A8/S100A9) chain 1: LTELEKALNSIIDVYHKYSLIKGNFHAVYRDDLKKLLETECPQYIRKKGADVWFKELDINTDGAVNFQEFLILVIKMGVAAHKKSHEESHKE chain 2: TCKMSQLERNIETIINTFHQYSVKLGHPDTLNQGEFKELVRKDLQNFLKKENKNEKVIEHIMEDLDTNADKQLSFEEFIMLMARLTWASHEKMHEGDEGPGHHHKPGLGEGTP",binding result,[4],binds
"recS100A8/S100A9(N69A) heterodimer (other, Heterodimer of S100A8 and mutated S100A9; also called recS100A8/S100A9(N69A) mutant complex) chain 1: LTELEKALNSIIDVYHKYSLIKGNFHAVYRDDLKKLLETECPQYIRKKGADVWFKELDINTDGAVNFQEFLILVIKMGVAAHKKSHEESHKE chain 2: TCKMSQLERNIETIINTFHQYSVKLGHPDTLNQGEFKELVRKDLQNFLKKENKNEKVIEHIMEDLDTAADKQLSFEEFIMLMARLTWASHEKMHEGDEGPGHHHKPGLGEGTP",binding result,[5],no binding
"recS100A8/S100A9(E78A) heterodimer (other, Heterodimer of S100A8 and mutated S100A9; also called recS100A8/S100A9(E78A) mutant complex) chain 1: LTELEKALNSIIDVYHKYSLIKGNFHAVYRDDLKKLLETECPQYIRKKGADVWFKELDINTDGAVNFQEFLILVIKMGVAAHKKSHEESHKE chain 2: TCKMSQLERNIETIINTFHQYSVKLGHPDTLNQGEFKELVRKDLQNFLKKENKNEKVIEHIMEDLDTNADKQLSFEAFIMLMARLTWASHEKMHEGDEGPGHHHKPGLGEGTP",binding result,[5],no binding
"recS100A8/S100A9(N69A+E78A) heterodimer (other, Heterodimer of S100A8 and doubly mutated S100A9) chain 1: LTELEKALNSIIDVYHKYSLIKGNFHAVYRDDLKKLLETECPQYIRKKGADVWFKELDINTDGAVNFQEFLILVIKMGVAAHKKSHEESHKE chain 2: TCKMSQLERNIETIINTFHQYSVKLGHPDTLNQGEFKELVRKDLQNFLKKENKNEKVIEHIMEDLDTAADKQLSFEAFIMLMARLTWASHEKMHEGDEGPGHHHKPGLGEGTP",binding result,[5],no binding

# Source: US20180017576A1 (WESTFAELISCHE WILHELMS UNIVERSITAET MUENSTER, published 2018)
